Patent US20160159862A1 (PROTAGONIST THERAPEUTICS, published 2016)
Numbered stars: 1 amine (or outer) side, 2 acyl side, 3 side chain; on linkers, the order of the positions; unused ones are H or OH. Bridge positions count the residues as written; N and C are the ends. Square brackets hold non-standard residues; d marks the D form. Ends that are not written are not given here. 2Nal = N[C@@H](Cc1ccc2ccccc2c1)C(=O)O; Diglycolyl = O=C(COCC(=O)[*:2])[*:1]; NMeR = CN[C@@H](CCCNC(=N)N)C(=O)O; Tic = O=C(O)[C@@H]1Cc2ccccc2CN1; Cit = NC(=O)NCCC[C@H](N)C(=O)O; Pen = CC(C)(S)[C@H](N)C(=O)O; Dab = NCC[C@H](N)C(=O)O; Dap = NC[C@H](N)C(=O)O

B1: SEQ ID NO 5 (peptide)
peptide: Ac-[dK]C[NMeR]SDTLCW[dK]-NH2
modifications: disulfide 2-8 (inferred); not fully specified; printed as DIG-(Ac-k-C-(N-Me-R)-S-D-T-L-C-W-k-NH2)2-DIG
B2: SEQ ID NO 65 (peptide)
peptide: Ac-[Pen][NMeR]SDTL[Pen]WE[dK]
modifications: disulfide 1-7 (inferred); not fully specified (residue 10); printed as Ac-Pen-(N-Me-R)-S-D-T-L-Pen-W-E-k-Ac
B3: SEQ ID NO 6 (peptide)
peptide: Diglycolyl-C[NMeR]SDTLCW-NH2
modifications: disulfide 1-7 (inferred); not fully specified; printed as DIG-NH2-C-(N-Me-R)-S-D-T-L-C-W-NH2
B4: SEQ ID NO 7 (peptide)
peptide: [Pen][NMeR]SDTL[Pen][dF]-NH2
modifications: disulfide 1-7 (inferred); not fully specified (N-terminus); printed as DIG-NH2-Pen-(N-Me-R)-S-D-T-L-Pen-f-NH2, disulfide; also: DIG-NH2 at N-terminus, probably DIG-linked dimer
B5: SEQ ID NO 64 (peptide)
peptide: Ac-[Pen][NMeR]SDTL[Pen]W[dE][Dab]
modifications: disulfide 1-7 (inferred); not fully specified (residue 10); printed as Ac-Pen-(N-Me-R)-S-D-T-L-Pen-W-e-Dab-Ac
B6: SEQ ID NO 66 (peptide)
peptide: Ac-[Pen][NMeR]SDTL[Pen]W[dE][dK]
modifications: disulfide 1-7 (inferred); not fully specified (residue 10); printed as Ac-Pen-(N-Me-R)-S-D-T-L-Pen-W-e-k-Ac
B7: SEQ ID NO 62 (peptide)
peptide: Ac-[Pen][NMeR]SDTL[Pen]WE[Dab]
modifications: disulfide 1-7 (inferred); not fully specified (residue 10); printed as Ac-Pen-(N-Me-R)-S-D-T-L-Pen-W-E-Dab-Ac

What follows are binders tested against α4β7 integrin on human cells (human, UniProt P13612 34-1032; P26010 20-798) (assay: cell-based or functional assay).

| α4β7 cell (Hu) IC50 [nM] | Binder |
| --- | --- |
| > 50 | B1 |
| > 10000 | B2 |
| > 25 | Ac-[Pen][NMeR]SDTL[Pen]WD[dK]-NH2 (disulfide 1-7 (inferred); also: homodimer linked by DIG) [SEQ ID NO 87] |
| > 50 | B3 |
| > 1000 | B4 |
| > 50 | Ac-[Pen][NMeR]SDTL[Pen][2Nal]E-NH2 (disulfide 1-7 (inferred)) [SEQ ID NO 75] |
| > 50 | Ac-[Pen][NMeR]SDTL[Pen]WN[dK]-NH2 (disulfide 1-7 (inferred); also: homodimer linked by DIG) [SEQ ID NO 83] |
| > 10 | Ac-[dK]C[NMeR]SDTLCW[dK]-NH2 (disulfide 2-8 (inferred); also: dimer joined by DIG) [SEQ ID NO 4] |
| > 100 | Ac-[Pen][NMeR]SDTL[Pen]W[dE][Dap]-NH2 (disulfide 1-7 (inferred)) [SEQ ID NO 55] |
| > 25 | Ac-[Pen][NMeR]SDTL[Pen]W[dE][dK]-NH2 (disulfide 1-7 (inferred); also: homodimer linked by IDA, IDA-Biotine) [SEQ ID NO 71] |
| > 1000 | B5 |
| > 1000 | Ac-[Pen][NMeR]SDTL[Pen]WE[Dab]-NH2 (disulfide 1-7 (inferred)) [SEQ ID NO 61] |
| > 50 | Ac-[Pen][NMeR]SDTL[Pen]W[dY][dK]-NH2 (disulfide 1-7 (inferred); also: homodimer linked by DIG) [SEQ ID NO 92] |
| > 50 | Ac-[Pen][NMeR]SDTL[Pen]WQ[dK]-NH2 (disulfide 1-7 (inferred); also: homodimer linked by DIG) [SEQ ID NO 82] |
| > 10 | XRSDTLXWK ((Ac-Pen-(N-Me-R)-S-D-T-L-Pen-W-k-OH)2-DIG; disulfide) [SEQ ID NO 76] |
| > 10000 | Ac-[Pen][NMeR]SDTL[Pen]WE[Dap]-NH2 (disulfide 1-7 (inferred)) [SEQ ID NO 59] |
| > 1000 | Ac-[Pen][NMeR]SDTL[Pen]W[dE][Dap] (disulfide 1-7 (inferred); also: Ac written after C-terminal Dap, place unclear) [SEQ ID NO 63] |
| > 25 | Ac-[Pen][NMeR]SDTL[Pen]W[dE][dK]-NH2 (disulfide 1-7 (inferred); also: homodimer linked by IDA, IDA-PEG4-Biotine) [SEQ ID NO 72] |
| > 1000 | Ac-[Pen][NMeR]SDTL[Pen]WE[Dap] (disulfide 1-7 (inferred); also: Ac written after C-terminal Dap, place unclear) [SEQ ID NO 60] |
| > 100 | XRSDTLXWK ((Ac-Pen-(N-Me-R)-S-D-T-L-Pen-W-(N-Me-K)-NH2)2-DIG; disulfide) [SEQ ID NO 77] |
| > 10000 | B6 |
| ≤ 10 | Ac-[Pen][NMeR]SDTL[Pen]WF[dK]-NH2 (disulfide 1-7 (inferred); also: homodimer linked by DIG) [SEQ ID NO 85] |
| > 25 | Ac-[Pen][NMeR]SDTL[Pen]W[dE][dK]-NH2 (disulfide 1-7 (inferred); also: homodimer linked by IDA) [SEQ ID NO 70] |
| > 100 | Ac-[Pen][NMeR]SDTL[Pen]W[dF][dK]-NH2 (disulfide 1-7 (inferred); also: homodimer linked by DIG) [SEQ ID NO 91] |
| > 500 | Ac-[Pen][NMeR]SDTL[Pen]W[dE][Dab]-NH2 (disulfide 1-7 (inferred)) [SEQ ID NO 56] |
| > 10 | Ac-[Pen][NMeR]SDTL[Pen]W[Cit][dK]-NH2 (disulfide 1-7 (inferred); also: homodimer linked by DIG) [SEQ ID NO 84] |
| > 1000 | B7 |
| > 50 | Ac-[Pen][NMeR]SDTL[Pen][Tic][dE][dK]-NH2 (disulfide 1-7 (inferred); also: homodimer linked by DIG) [SEQ ID NO 80] |
